Test results reported in patent publication US20210355194A1.

Key:
[1] = molecular target: SARS-CoV-2 antigen of the epitope binning (SARS-CoV-2) (UniProt P0DTC2); assay: epitope binning; competitor 2-5
[2] = molecular target: SARS-CoV-2 antigen of the epitope binning (SARS-CoV-2) (UniProt P0DTC2); assay: epitope binning; competitor 2-11
[3] = molecular target: SARS-CoV-2 antigen of the epitope binning (SARS-CoV-2) (UniProt P0DTC2); assay: epitope binning; competitor 1-32
[4] = molecular target: SARS-CoV-2 antigen of the epitope binning (SARS-CoV-2) (UniProt P0DTC2); assay: epitope binning; competitor 2-2
[5] = molecular target: SARS-CoV-2 antigen of the epitope binning (SARS-CoV-2) (UniProt P0DTC2); assay: epitope binning; competitor 1-35
[6] = molecular target: SARS-CoV-2 antigen of the epitope binning (SARS-CoV-2) (UniProt P0DTC2); assay: epitope binning; competitor 1-16
[7] = molecular target: SARS-CoV-2 antigen of the epitope binning (SARS-CoV-2) (UniProt P0DTC2); assay: epitope binning; competitor 2-6
[8] = molecular target: SARS-CoV-2 antigen of the epitope binning (SARS-CoV-2) (UniProt P0DTC2); assay: epitope binning; competitor Acro mAb
[9] = molecular target: SARS-CoV-2 antigen of the epitope binning (SARS-CoV-2) (UniProt P0DTC2); assay: epitope binning; competitor 2-8
[10] = molecular target: SARS-CoV-2 antigen of the epitope binning (SARS-CoV-2) (UniProt P0DTC2); assay: epitope binning; competitor CR3022
[11] = molecular target: ACE2 on VERO E6 cells (African green monkey); assay: flow cytometry, VERO E6 cells, positive control

Substance	epitope binning score [1]	epitope binning score [2]	epitope binning score [3]	epitope binning score [4]	epitope binning score [5]	epitope binning score [6]	epitope binning score [7]	epitope binning score [8]	epitope binning score [9]	epitope binning score [10]	MFI [11]	MFI/Baseline [11]
CR3022 (antibody)	0	1	1	0	2	2	2	2	0	0	–	–
S1 RBD Fc fusion (from UniProt P0DTC2 319-541)	–	–	–	–	–	–	–	–	–	–	26100	75.9
